The target of this test is STAT6 (pcDNA4-STAT6-mychis expression construct) (UniProt P42226).
UniProt P42226, sequence (P42226 whole entry): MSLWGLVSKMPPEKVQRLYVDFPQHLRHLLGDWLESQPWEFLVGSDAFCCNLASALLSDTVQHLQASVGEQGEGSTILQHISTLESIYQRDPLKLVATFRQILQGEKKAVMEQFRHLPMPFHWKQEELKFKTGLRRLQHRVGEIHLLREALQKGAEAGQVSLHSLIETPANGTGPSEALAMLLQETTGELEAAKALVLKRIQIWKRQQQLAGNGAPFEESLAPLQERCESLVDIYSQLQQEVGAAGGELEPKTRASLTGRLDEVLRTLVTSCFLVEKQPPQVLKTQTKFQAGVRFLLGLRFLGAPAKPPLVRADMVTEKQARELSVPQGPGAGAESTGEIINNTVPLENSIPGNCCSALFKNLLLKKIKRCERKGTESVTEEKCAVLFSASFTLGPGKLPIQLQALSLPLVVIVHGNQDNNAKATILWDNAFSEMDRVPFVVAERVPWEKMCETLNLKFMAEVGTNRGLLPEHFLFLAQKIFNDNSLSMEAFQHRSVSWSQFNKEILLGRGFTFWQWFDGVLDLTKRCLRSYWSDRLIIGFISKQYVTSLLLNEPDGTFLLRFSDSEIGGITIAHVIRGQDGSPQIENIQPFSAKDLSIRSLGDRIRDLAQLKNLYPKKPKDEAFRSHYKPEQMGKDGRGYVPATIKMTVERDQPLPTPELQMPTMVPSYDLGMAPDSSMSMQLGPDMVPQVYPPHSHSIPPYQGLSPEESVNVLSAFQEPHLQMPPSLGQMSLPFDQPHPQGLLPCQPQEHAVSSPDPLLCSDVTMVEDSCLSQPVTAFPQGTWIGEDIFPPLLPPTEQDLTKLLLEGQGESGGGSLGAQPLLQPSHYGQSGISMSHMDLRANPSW

In turn, HA-Tip-YYFY (Y127F) (natural protein) showed an STAT6-responsive luciferase reporter in 293T cells transfected with Lck and Tip variants, against wildtype Tip (fold reduction) of 3.

The record behind these values is publication PMC3320567.
